Reference: paper PMC6756068, “The NF2 tumor suppressor merlin interacts with Ras and RasGAP, which may modulate Ras signaling” (Oncogene, 2019)

Target: T1, full-length (FL) RasGAP purified from E. coli (UniProt P20936 1-1047)
T1 construct: p120RasGAP (RASA1), full length; also called purified FL RasGAP; source: E. coli, purified
T1 sequence (looked up): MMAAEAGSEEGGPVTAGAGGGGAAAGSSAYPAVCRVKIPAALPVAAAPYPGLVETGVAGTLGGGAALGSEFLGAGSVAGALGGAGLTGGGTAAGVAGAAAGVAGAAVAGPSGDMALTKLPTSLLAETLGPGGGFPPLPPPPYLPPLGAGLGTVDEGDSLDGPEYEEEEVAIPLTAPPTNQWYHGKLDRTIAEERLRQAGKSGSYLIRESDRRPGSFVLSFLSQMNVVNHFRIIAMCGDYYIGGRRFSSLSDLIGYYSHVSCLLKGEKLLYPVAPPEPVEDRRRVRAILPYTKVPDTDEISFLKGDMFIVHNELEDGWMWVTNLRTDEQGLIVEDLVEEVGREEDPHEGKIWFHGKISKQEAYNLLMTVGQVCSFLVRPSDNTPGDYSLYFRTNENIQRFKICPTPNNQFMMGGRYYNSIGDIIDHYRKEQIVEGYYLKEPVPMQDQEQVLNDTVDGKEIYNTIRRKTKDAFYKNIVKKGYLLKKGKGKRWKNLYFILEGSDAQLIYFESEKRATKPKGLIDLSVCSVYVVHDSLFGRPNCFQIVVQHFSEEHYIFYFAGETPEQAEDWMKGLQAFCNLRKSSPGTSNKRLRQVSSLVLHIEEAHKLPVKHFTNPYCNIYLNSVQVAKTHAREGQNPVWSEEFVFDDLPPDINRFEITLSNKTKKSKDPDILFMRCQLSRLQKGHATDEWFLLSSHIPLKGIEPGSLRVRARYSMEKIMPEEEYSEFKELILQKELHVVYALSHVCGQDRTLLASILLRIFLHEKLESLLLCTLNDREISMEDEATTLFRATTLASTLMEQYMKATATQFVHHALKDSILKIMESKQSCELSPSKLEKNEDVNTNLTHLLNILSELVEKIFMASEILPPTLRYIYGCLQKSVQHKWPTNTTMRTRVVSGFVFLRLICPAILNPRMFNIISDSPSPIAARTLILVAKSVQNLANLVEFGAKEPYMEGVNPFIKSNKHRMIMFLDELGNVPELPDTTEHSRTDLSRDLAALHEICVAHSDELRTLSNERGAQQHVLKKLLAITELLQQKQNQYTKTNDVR
Assay: pull-down; GST-merlin fragments pull down FL RasGAP purified from E. coli; western blot
Details: both partners purified

binding result: binds
B1: GST-merlin aa 1–73 (domain or fragment, UniProt P35240 1-73, looked up)
chain: MAGAIASRMSFSSLKRKQPKTFTVRIVTMDAEMEFNCEMKWKGKDLFDLVCRTLGLRETWFFGLQYTIKDTVA
notes: merlin (NF2), part of the F1 subdomain of the FERM domain, aa 1-73; also called aa 1–73 fragment; part of merlin's F1 subdomain
